# In publication PMC12748791 (Nature Communications, 2025):
# B1: Anion Exchanger 1 (AE1) (natural protein, human, UniProt P02730 1-911, looked up)
# chain: MEELQDDYEDMMEENLEQEEYEDPDIPESQMEEPAAHDTEATATDYHTTSHPGTHKVYVELQELVMDEKNQELRWMEAARWVQLEENLGENGAWGRPHLSHLTFWSLLELRRVFTKGTVLLDLQETSLAGVANQLLDRFIFEDQIRPQDREELLRALLLKHSHAGELEALGGVKPAVLTRSGDPSQPLLPQHSSLETQLFCEQGDGGTEGHSPSGILEKIPPDSEATLVLVGRADFLEQPVLGFVRLQEAAELEAVELPVPIRFLFVLLGPEAPHIDYTQLGRAAATLMSERVFRIDAYMAQSRGELLHSLEGFLDCSLVLPPTDAPSEQALLSLVPVQRELLRRRYQSSPAKPDSSFYKGLDLNGGPDDPLQQTGQLFGGLVRDIRRRYPYYLSDITDAFSPQVLAAVIFIYFAALSPAITFGGLLGEKTRNQMGVSELLISTAVQGILFALLGAQPLLVVGFSGPLLVFEEAFFSFCETNGLEYIVGRVWIGFWLILLVVLVVAFEGSFLVRFISRYTQEIFSFLISLIFIYETFSKLIKIFQDHPLQKTYNYNVLMVPKPQGPLPNTALLSLVLMAGTFFFAMMLRKFKNSSYFPGKLRRVIGDFGVPISILIMVLVDFFIQDTYTQKLSVPDGFKVSNSSARGWVIHPLGLRSEFPIWMMFASALPALLVFILIFLESQITTLIVSKPERKMVKGSGFHLDLLLVVGMGGVAALFGMPWLSATTVRSVTHANALTVMGKASTPGAAAQIQEVKEQRISGLLVAVLVGLSILMEPILSRIPLAVLFGIFLYMGVTSLSGIQLFDRILLLFKPPKYHPDVPYVKRVKTWRMHLFTGIQIICLAVLWVVKSTPASLALPFVLILTVPLRRVLLPLIFRNVELQCLDADDAKATFDEEEGRDEYDEVAMPV
# modifications: N-linked glycosylation at N642; lysines cross-linked with DSP (K539 and K851)
# notes: Anion exchanger 1 (band 3), human, 911 residues: cytosolic domain 1-347, linker 348-370, transmembrane domain 371-911; the full-length protein was purified, only the transmembrane domain was resolved in the maps; Native protein from red blood cells; held in lipid nanodiscs (MSP-1E3D1, POPC) with PIP2 and POPC lipids at the dimer interface; also called band 3; SLC4A1
# Target: the molecule itself
# Test: cryo-EM structure; full-length AE1 from DSP-cross-linked human erythrocyte ghost membranes in MSP-1E3D1/POPC nanodiscs; dimer configurations IF1/OF, OF/OF and IF1/IF2 separated by 3D classification
protein,measurement,value
B1,stoichiometry N,2
